Measurements taken from the supplement of paper PMC10126150.
± gives the standard deviation of the averaged measurements.
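Note: ATP exposure 15 min at 22 °C before imaging.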

These sequences were tested on ATP (assay: switch fluorescence ratio, 500 uM ATP over buffer (Cy3 cluster intensity, sum of 5 cycles each) (fold (ratio)); higher = stronger signal-on switching upon ATP binding; sequences stand for … in TCGTCGGCAGCGTCAGATGTGTATAAGAGACAGTTTTTTTTTTTTTTTTTTTTTTTTT…TC). Conditions: aptamer strand: ATP DNA aptamer (quencher-CACCTGGGGGAGTATTGCGGAGGAAGG + anchor), 100 nM annealed; ATP concentration: 500 uM.
In short: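 Per cluster, summed Cy3 intensity from the target cycles was divided by that from the buffer cycles to give the fluorescence ratio, then averaged per switch-domain sequence. Clusters outside 100-1000 RFU were excluded. The Cy3-labelled switching-strand clusters, on a modified Illumina MiSeq flow-cell, were annealed to 100 nM quencher-labelled ATP aptamer and imaged in selection buffer, then after 15 min with 500 uM ATP at 22 °C, for five cycles with NaOH stripping and re-annealing between them.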
TGGCAAAATG showed a switch fluorescence ratio of 0.9915 ± 0.0088.
For TGGCAATTTG, the switch fluorescence ratio was 1 ± 0.033.
Sequence TGGCACCATT has a switch fluorescence ratio of 1.06 ± 0.047.
TGGCAGACGG was tested, and the switch fluorescence ratio was 1.01 ± 0.038.
TGGCAGAGGG gave a switch fluorescence ratio of 1 ± 0.044.
For TGGCAGGGGG, the switch fluorescence ratio was 0.945 ± 0.029.
With TGGCAGGGTC the switch fluorescence ratio was 0.9774 ± 0.0077.
For TGGCATTCGT, the switch fluorescence ratio was 0.9757 ± 0.0091.
In the case of TGGCCACTTA, the switch fluorescence ratio is reported as 1.073 ± 0.0058.
In the case of TGGCCAGCTC, the switch fluorescence ratio is reported as 0.975 ± 0.016.
TGGCCATAGG was tested, and the switch fluorescence ratio was 0.999 ± 0.041.
TGGCCCGGGC gave a switch fluorescence ratio of 1.02 ± 0.017.
In the case of TGGCCGCGGA, the switch fluorescence ratio is reported as 1.01 ± 0.03.
TGGCCGTATT gave a switch fluorescence ratio of 1 ± 0.056.
Work on TGGCCTCATC yielded a switch fluorescence ratio of 1.02 ± 0.058.
TGGCCTGCTG was tested, and the switch fluorescence ratio was 0.9919 ± 0.0026.
Work on TGGCCTGGGA yielded a switch fluorescence ratio of 1.026 ± 0.0056.
For TGGCGATTTT, the switch fluorescence ratio was 0.978 ± 0.048.
In the case of TGGCGCATTC, the switch fluorescence ratio is reported as 1.3 ± 0.15.
In the case of TGGCGCCACT, the switch fluorescence ratio is reported as 0.976 ± 0.013.
With TGGCGCCGAT the switch fluorescence ratio was 0.9608 ± 0.0026.
TGGCGCCGGG showed a switch fluorescence ratio of 0.9958 ± 0.0091.
Work on TGGCGCTTGT yielded a switch fluorescence ratio of 0.978 ± 0.028.
TGGCGGAAGG gave a switch fluorescence ratio of 0.999 ± 0.044.
With TGGCGGACGT the switch fluorescence ratio was 1 ± 0.0081.
TGGCGGAGTC gave a switch fluorescence ratio of 1 ± 0.022.
TGGCGGCCAC was tested, and the switch fluorescence ratio was 1.04 ± 0.15.
In the case of TGGCGGGGTT, the switch fluorescence ratio is reported as 0.986 ± 0.022.
Sequence TGGCGGTACG has a switch fluorescence ratio of 1.02 ± 0.069.
TGGCGGTTGC showed a switch fluorescence ratio of 0.955 ± 0.013.
TGGCGTTGAT showed a switch fluorescence ratio of 0.984 ± 0.019.
Work on TGGCGTTTGG yielded a switch fluorescence ratio of 1 ± 0.015.
With TGGCGTTTTT the switch fluorescence ratio was 1.01 ± 0.023.
For TGGCTGGAAG, the switch fluorescence ratio was 0.988 ± 0.027.
Sequence TGGCTGGGTT has a switch fluorescence ratio of 1 ± 0.054.
TGGCTTACAT was tested, and the switch fluorescence ratio was 1.0268 ± 0.00039.
TGGCTTAGGA was tested, and the switch fluorescence ratio was 0.979 ± 0.012.
TGGCTTATTT was tested, and the switch fluorescence ratio was 0.988 ± 0.031.
TGGCTTTGCT was tested, and the switch fluorescence ratio was 0.962 ± 0.015.
TGGCTTTGGA gave a switch fluorescence ratio of 0.988 ± 0.022.
Sequence TGGCTTTGTT has a switch fluorescence ratio of 0.9888 ± 0.0041.
Work on TGGCTTTTAT yielded a switch fluorescence ratio of 0.95149 ± 0.00041.
In the case of TGGCTTTTTG, the switch fluorescence ratio is reported as 0.9898 ± 0.0035.
In the case of TGGCTTTTTT, the switch fluorescence ratio is reported as 0.998 ± 0.027.
With TGGGAAAAAC the switch fluorescence ratio was 1.09 ± 0.1.
Sequence TGGGAAAACT has a switch fluorescence ratio of 1.07 ± 0.12.
Sequence TGGGAAAATT has a switch fluorescence ratio of 1 ± 0.033.
TGGGAAAGCT was tested, and the switch fluorescence ratio was 1.256 ± 0.0016.
Work on TGGGAACACT yielded a switch fluorescence ratio of 1.01 ± 0.033.
TGGGAACTCG was tested, and the switch fluorescence ratio was 0.99483 ± 0.00048.
For TGGGAAGAGC, the switch fluorescence ratio was 1.025 ± 0.0038.
TGGGAATGCG showed a switch fluorescence ratio of 1.013 ± 0.0026.
With TGGGAATTCC the switch fluorescence ratio was 1 ± 0.011.
TGGGAATTGA was tested, and the switch fluorescence ratio was 0.9976 ± 0.0057.
Sequence TGGGACAGGG has a switch fluorescence ratio of 1.03 ± 0.088.
Work on TGGGACATGC yielded a switch fluorescence ratio of 0.987 ± 0.0088.
TGGGACATTT gave a switch fluorescence ratio of 1.04 ± 0.057.
For TGGGACCCGT, the switch fluorescence ratio was 1.04 ± 0.038.
For TGGGACCGGC, the switch fluorescence ratio was 0.98 ± 0.021.
In the case of TGGGACGATC, the switch fluorescence ratio is reported as 1.05 ± 0.028.
TGGGACGTTT showed a switch fluorescence ratio of 0.934 ± 0.046.
With TGGGACTATT the switch fluorescence ratio was 1.01 ± 0.076.
With TGGGACTCGA the switch fluorescence ratio was 0.991 ± 0.035.
TGGGACTTAG was tested, and the switch fluorescence ratio was 1.017 ± 0.0022.
TGGGACTTTT was tested, and the switch fluorescence ratio was 1.01 ± 0.053.
Sequence TGGGAGAAAC has a switch fluorescence ratio of 1.09 ± 0.091.
Work on TGGGAGAGT yielded a switch fluorescence ratio of 1.011 ± 0.0034.
TGGGAGAGTG was tested, and the switch fluorescence ratio was 0.994 ± 0.0055.
TGGGAGGAAT showed a switch fluorescence ratio of 0.988 ± 0.037.
For TGGGAGGAGT, the switch fluorescence ratio was 1 ± 0.048.
TGGGAGGATT showed a switch fluorescence ratio of 1 ± 0.027.
TGGGAGGCAT gave a switch fluorescence ratio of 1.01 ± 0.027.
TGGGAGGGTC was tested, and the switch fluorescence ratio was 1.12 ± 0.14.
With TGGGAGGGTT the switch fluorescence ratio was 1.12 ± 0.25.
TGGGAGTATA was tested, and the switch fluorescence ratio was 1 ± 0.032.
Sequence TGGGAGTTGT has a switch fluorescence ratio of 0.989 ± 0.011.
For TGGGATAGGT, the switch fluorescence ratio was 1.01 ± 0.06.
In the case of TGGGATAGTG, the switch fluorescence ratio is reported as 1 ± 0.046.
TGGGATATAT showed a switch fluorescence ratio of 0.954 ± 0.034.
TGGGATATCT showed a switch fluorescence ratio of 1 ± 0.023.
TGGGATCCAT gave a switch fluorescence ratio of 0.972 ± 0.015.
TGGGATGAAG was tested, and the switch fluorescence ratio was 0.982 ± 0.01.
TGGGATGCTT showed a switch fluorescence ratio of 0.981 ± 0.011.
For TGGGATGGGC, the switch fluorescence ratio was 1.05 ± 0.14.
Sequence TGGGATGGGT has a switch fluorescence ratio of 1.02 ± 0.092.
